Laboratory results taken from US8703459B2, “Catalytic domains of beta(1,4)-galactosyltransferase I having altered metal ion specificity” (The United States of America, as represented by the …, priority 2003, dated 2014).
Changes are numbered by the printed parent chain. In names and notes the source's numbering stands. Marks after values point to notes of the source that are not given here.

B1: M344E-Gal-T1: bovine β4Gal-T1 catalytic domain (C342T) with Met344 mutated to glutamic acid (protein, listed as Bos taurus)
chain: MKFREPLLGGSAAMPGASLQRACRLLVAVCALHLGVTLVYYLAGRDLRRLPQLVGVHPPLQGSSHGAAAIGQPSGELRLRGVAPPPPLQNSSKPRSRAPSNLDAYSHPGPGPGPGSNLTSAPVPSTTTRSLTACPEESPLLVGPMLIEFNIPVDLKLIEQQNPKVKLGGRYTPMDCISPHKVAIIILFRNRQEHLKYWLYYLHPMVQRQQLDYGIYVINQAGESMFNRAKLLNVGFKEALKDYDYNCFVFSDVDLIPMNDHNTYRCFSQPRHISVAMDKFGFSLPYVQYFGGVSALSKQQFLSINGFPNNYWGWGGEDDDIYNRLAFRGMSVSRPNAVIGKCREIRHSRDKKNEPNPQRFDRIAHTKETMLSDGLNSLTYMVLEVQRYPLYTKITVDIGTPS
B2: M344A: Met344 mutant of β4Gal-T1, Met344 to Ala (protein, listed as Bos taurus)
chain: B1 chain with E344A
B3: M344Q: Met344 mutant of β4Gal-T1, Met344 to Gln (protein, listed as Bos taurus)
chain: B1 chain with E344Q
B4: M344S: Met344 mutant of β4Gal-T1 (protein, listed as Bos taurus)
chain: B1 chain with E344S

Legend:
[1] = Metal ion activation curve, metal binding constants for Mn^2+; assay type: biochemical, bovine
Description: The activation curve of M344E-Gal-T1, using Mn^2+, is strikingly different from that of the wild-type enzyme (FIGS. 1A and 1B). In contrast to the wild type enzyme, the velocity curve obtained with the Mn^2+ concentration for the M344E-Gal-T1 mutant is not sigmoidal. On the other hand, the same curve for the M344H-Gal-T1 mutant in the presence of the Mg^2+ is sigmoidal (FIG. 1C). The observation that activation of the wild type enzyme by metal ions is sigmoidal has been interpreted as involving two metal binding sites in the enzyme: one with high affinity (Kd1), which is associated with low velocity, and a second site with low affinity (Kd2), which is associated with high velocity (Powell and Brew, J. Biol. Chem., 251:3645 (1976); Boeggeman and Qasba, Glycobiology, 12:395 (2002)). […] The values of the dissociation constant (Kd) for Mn^2+ of the mutant are quite different from that of the wild type (Table IV).
The enzyme activation data at various concentrations of Mg^2+ were fitted to an equation describing metal binding to a high affinity site (K1) to generate an enzyme form with a low kcat (V1) and to a second, lower affinity site (K2) to generate a form with a higher kcat (V2) (Boeggeman and Qasba, Glycobiology, 12:395 (2002)): […]

[2] = β4Gal-T enzyme assay, specific activity in the presence of various metal ions; assay type: biochemical, bovine; settings: 500 μM UDP-Gal, 25 mM GlcNAc; for Catalytic Activity in the Presence of Various Metal Ions: Co: 0.1 mM Co^2+; for Catalytic Activity in the Presence of Various Metal Ions: Zn: 0.1 mM Zn^2+; for Catalytic Activity in the Presence of Various Metal Ions: Ca / Catalytic Activity in the Presence of Various Metal Ions: Mg / Catalytic Activity in the Presence of Various Metal Ions: Mn / Catalytic Activity in the Presence of Various Metal Ions: Sr: 5 mM metal ion
Experimental: Protein concentrations were measured using the Bio-Rad Protein Assay kit, based on the method of Bradford and further verified on SDS-PAGE gels using standard protein concentration markers. An in vitro assay procedure for Gal-T1 has been reported previously (Ramakrishnan et al., J. Mol. Biol., 310:205 (2001)). The activities were measured using UDP-Gal as sugar nucleotide donor, and GlcNAc as the acceptor sugar. For the specific activity measurements, a 100 μL incubation mixture containing 25 mM GlcNAc, 5 mM MnCl2 or MgCl2, 20 mM Tris-HCl pH 8.0, 500 μM UDP-Gal, 500 ng M344H-Gal-T1 or 30 ng of C342T-Gal-T1 and 0.5 μCi ^3H-UDP-Gal was used for each Gal-T reaction. The incubation was carried out at 30° C. for 15 minutes. The reaction was terminated by adding of 200 μl cold water, and the mixture was passed through a 0.5 mL bed volume column of AG 1-X8 […] resin (Bio-Rad) to remove any unreacted ^3H-UDP-Gal. The column was washed successively with 300, 400 and 500 μl of cold water, and the column flow-through was diluted with Biosafe scintillation fluid; radioactivity was measured with a Beckman counter. A reaction without the acceptor sugar was used as a control. Only 0.1 mM concentration of ZnCl2 or CoCl2 was used whenever Zn^2+ or Co^2+ was used during the enzyme assay.

K1 compared with binding to the primary site of the wild type ([1]; Mn^2+)	Kd ([1]; single metal binding site model, derived from FIG. 1B, read-out: binding constant K1 for Mn^2+) [nM]	Molecule	Catalytic Activity in the Presence of Various Metal Ions: Co [2]	Catalytic Activity in the Presence of Various Metal Ions: Zn [2]	Catalytic Activity in the Presence of Various Metal Ions: Ca [2]	Catalytic Activity in the Presence of Various Metal Ions: Mg [2]	Catalytic Activity in the Presence of Various Metal Ions: Mn [2]	Catalytic Activity in the Presence of Various Metal Ions: Sr [2]
fifty-fold lower	500	B1	0.24 picomoles per minute per nanogram	0.27 picomoles per minute per nanogram	0.01 picomoles per minute per nanogram	0 picomoles per minute per nanogram	0.32 picomoles per minute per nanogram	0.02 picomoles per minute per nanogram
		B2	0.61^b picomoles per minute per nanogram	0.64 picomoles per minute per nanogram	0 picomoles per minute per nanogram	0 picomoles per minute per nanogram	4.16 picomoles per minute per nanogram	0 picomoles per minute per nanogram
		B3	0.80^b picomoles per minute per nanogram	0.71 picomoles per minute per nanogram	0 picomoles per minute per nanogram	0 picomoles per minute per nanogram	1.91 picomoles per minute per nanogram	0 picomoles per minute per nanogram
		B4	0.41 picomoles per minute per nanogram	0.40 picomoles per minute per nanogram	0 picomoles per minute per nanogram	0 picomoles per minute per nanogram	1.97 picomoles per minute per nanogram	0 picomoles per minute per nanogram
